Assay results reported in the DeepSol protein solubility set.

assay: soluble on expression in E. coli; label from the status in PepcDB or PDB records

Sequence | soluble on expression in E. coli
GSHMVKDTLFSTPIAKLGDFIFDENVAEVFPDMIQRSVPGYSNIITAIGMLAERFVTADSNVYDLGCSRGAATLSARRNINQPNVKIIGIDNSQPMVERCRQHIAAYHSEIPVEILCNDIRHVEIKNASMVILNFTLQFLPPEDRIALLTKIYEGLNPNGVLVLSEKFRFEDTKINHLLIDLHHQFKRANGYSELEVSQKRTALENVMRTDSIETHKVRLKNVGFSQVELWFQCFNFGSMIAVK | soluble
LKDFRYGIRLTGTTIKNEVISLGGKRIASGDIGAGKSVQMTEEGKPIKYFYGYNVIGIFQNEAQIKDYNERAAAATGNAGQQYQNNVGPGDLIYEDVDGDGYITANDRKDLGSPTPKFIGGLGISAFWKGFDLSIDFQGNFGNKIFNAKQVERFSGSDNWDRSFLDRWTPENPNTMTPRMTLEGNNYQVSSRYVESGSYVKLQTVELGYTFPKSWMQKVSVQNLRVYFSGNNLAYFTGYNGFTPEVLGGIDRQIYPVTATCRFGLNVTF | not soluble
MVRGVFVGLFSKKQSVLVGVDISSTAVKLLQLSRSGNRFKVEHYAVEPLPLNAVAEKGIVEVEQVGEAIRRAVSRSGTKAKFAAAAVAGSAVITKLIPMPAGLDEQDLEAQIEIEATNYIPYPIEEVSLDFEVLGPVPNNTEMVQVLLAASRSENVELRQSALELGGLTAKVIDVEALAVENAFSLIAQELSVGSNALVALIDIGATMSTLNVLHSGRSLYAREQLFGGKQLTDEVMHRYGMTYEEAGQAKRQGGLPQSYEVEVLGPFKDSVIQQISRLLQFFYAGSEYNRVDCIVLAGGCAVIAGLPAMVEERLGVVTVVANPLAQMTLGAKVQAHTLAQDAPALMIATGLALRSFD | not soluble
AHHHHHHGSISREQILEVLEKYDKEKITIGVIGSHSALDITDGAKEEGFPTLVVAQRGRHKTYEKYFKLRKTRDGLVKGFIDEVIVLEKFSQIIDIQEELRKRNVIFIPNRSFVVYTGIDRVENEFLVPMFGTRSLLRTEERSEEKSYYWLLEKAKLPYPEEVKPEEIDEVGLVIVKLPHAKKRLERGFFTAASYKEFKEKSEKLIRLGVITREDLEKARIERYIIGPVFNFDFFYSPIDEEIELLGIDWRFETSLDGHVRLPAAQQLTLPEWQFEPEYTVCGHASSTLRESLLEKVFDMAEKYVEATKKYYPPGIIGPFTLQTAVDKDLNFYIYDVAPRTGGGTNIHMAMGHPYGNSLWRKPMSTGRRIALEIKRAIELDELEKVVT | not soluble
MRLFTPEAMREADRKAVERGYPSLLLMEWAGMKAARVYLELFGKAPALVLAGKGNNGGDGLVLARHLLLEGVGVRVYAAGGQTGDALLALQALLAHGVEVRPLEEASFREGEVVVDALFGTGLKGPLTDFYAELVERVNRAGLPVLALDLPSGLPFSPHVRATATVAFAALKTPHLFQREACGKLYLAEIGLPKPLLEREDLPEVASPEALRPLLPRRPLTAHKGSVGRVGVLGGYQGEDLRYAGAPLLAALGAYRMGAGLVHLVAPEGTPLEPLEAVFHPVPSPALPPLKAEALAVGMGGGPWGRAWALKALEARLPTVLDADALHPEVAEAYRKAGVPAVLTPHAGEAGRLLGISPEEVAKDPLGAARALAERTGLAVVLKGNPTVVAEGERLSVNPTGNPALATGGTGDVLSGAIAALLAAGLRPFDAARLGVFLHGLAGDLLAEEKGVGLLAREVAEALPRARRLLQEGRVPPAFFPR | soluble
MGSDKIHHHHHHMPTIHFVDGEKGGVGKSLFARTMIQYCLDKRIPFVPVETDRSNPDVAGVYKEICKYAVFSENERQANKADRIFEWAIERPVIVNLAAQSHRAVQGWIESNQLLELGSSQGVMFCKWFISTGGYDSINLFTQSVNTYGEKIPHILVRNLGLCDDWEHLESDSNFQNIVNKYQIKVIDFPKLAYRERNIIDQNRLTFAEAREYKEFGIIGKQRVVNFLKLAYGAFEKVGIWYEKVE | not soluble
MSEPAVVSILDTDLYKLTMLQAVLEHYPDAQVSYKYTNRSPKMALNQEAYNWLREQIRGLRNLHLLPEEEQWLRKNCPYLKESFYEFMHEFEFDPENSISLNYDSETKDLSIFIHGLWKNTIFYEIPLLALVSESYFKFVDKDWSPEGQFEKAYEKGKRLIRAGCAFTDFGTRRRRDPHTQEIVLQGLMKAQEDFKGPGSFLGTSNVYFAAKYNLNVSGTVAHEWYMGIAAITQNYKQANRIASLKWVQTFGTSLLIALTDTFSTDVFLKSFTANSADDLANVFHGVRQDSGCAEEYIEKVVKHYKSIGVDPSTKVIVHSDALNVDRCIELYKYCEKCGIKSAFGIGTNLTSDFQKVSNPSEVSKPMNIVIKLFSAEGTKAVKISDDIMKNTGDRDAVIQAKHQLCLPIA | soluble
MAHHHHHHMPSSSKKQNVVTFSEVHDPLYGMLSPLSPSPLVVRHVQYPSLHHYFLCERFKGSPAEQWMAEATTVWSLERLVKTAEEEGYQRHNWNKVKVDVMLLGTYFKFKQNEAARAVLLSTQPSLLLYHTPTDDFWGDGGDGKGKNVLGVVSMAVRARLHSEEERQKQRPPASGRHSKSAAAKSPALPATRT | soluble
DYRPGGFHPAFKGEPYKDARYILVRKLGWGHFSTVWLAKDMVNNTHVAMKIVRGDKVYTEAAEDEIKLLQRVNDADNTKEDSMGANHILKLLDHFNHKGPNGVHVVMVFEVLGENLLALIKKYEHRGIPLIYVKQISKQLLLGLDYMHRRCGIIHTDIKPENVLMEIVDSPENLIQIKIADLGNACWYDEHYTNSIQTREYRSPEVLLGAPWGCGADIWSTACLIFELITGDFLFEPDEGHSYTKDDDHIAQIIELLGELPSYLLRNGKYTRTFFNSRGLLRNISKLKFWPLEDVLTEKYKFSKDEAKEISDFLSPMLQLDPRKRADAGGLVNHPWLKDTLGMEEIRVPDRELYGSGSDIPGWFEEVRDHKRH | soluble
MGSDKIHHHHHHMKKIGHRIKTRRKLKGLTQEALGLAVGVSKVSVSSWELGKNSMHPELLNKVAGVLGVDAHWLLTGESFATLEDEKDSVFWAPKYKNIKAAAGAGCCHDDCLDEDEDEVPIPIKFVKNQTNKDQIFCVCVSGDSMEPVLSDGSIIAMNSSDTIIKDGKMYLVKQDDLLRVKVIHLLPKDMVLKSYNPNFKDETYNIKKDNIQILGRVFWFTSGR | not soluble
SMQELFNNLMELCKDSQRKFFYSDDVSASGRTYRIFSYNYASYSDWLLPDALECRGIMFEMDGEKPVRIASRPMEKFFNLNENPFTMNIDLNDVDYILTKEDGSLVSTYLDGDEILFKSKGSIKSEQALMANGILMNINHHRLRDRLKELAEDGFTANFEFVAPTNRIVLAYQEMKIILLNVRENETGEYISYDDIYKDATLRPYLVERYEIDSPKWIEEAKNAENIEGYVAVMKDGSHFKIKSDWYVSLHSTKSSLDNPEKLFKTIIDGASDDLKAMYADDEYSYRKIEAFETTYLKYLDRALFLVLDCHNKHCGKDRKTYAMEAQGVAKGAGMDHLFGIIMSLYQGYDSQEKVMCEIEQNFLKNYKKFIPEGY | soluble
MGSDKIHHHHHHMPWLRFCDRDRSVHMLVAMLDLTREKAEQVMRRGPWLASMTEPFRTELLRHAHLQKFAPDQVVYRHGDAVGGMYGLVAGSLTINSAPPDAASRLIHLGMPGAWTGEGPFLTGQPRRVELRALGGAWMMHVPLDALEQMMARDPGVSRAIAMNTVFTVDVLLRIIHDLQKRAVGRRIASVLQRASWVGDMPIPLSQTDLGIMANASRQQVNTAMQRFARAGWVSYTYRSVTVSNSQALRRFSEGDGSEW | not soluble
MSLKIYLFKPYDVIGFGGLKNFSAGETHIQKSIFPPPIMRFFHIFNSVYGVFLYKDGNLFLPVPSDCLVKRKEESGKAKISPLEFPPLIRGDLEAYERANGFISFSDLMNKYAKNIDGFKIYLLEEFLKKESRVGITMDKERRVVRSIKEINRKEEKGLLYSQDFFRFNDGVKLAVLGEINKDIVISGKQYFRMGGEGKIVSFKHTEHINSFLEGKIKIKNGNYYKFYCLTHAYINNGIIESKIQTICIEGINFEVEWLYNGGVEYVSGYNKPFLEMLRPGSVLILKAKNEGEIQRLNQISTNVPISNIKNFLNRGWNSGIIVEGVKEGHHHHHH | soluble
MVFDKLLEQAGINLEFEDKEIKDSDYLGDVSDLIKIAVIGVGGSGNNTISRLYDLGVQGADLIAMNTDAQHLHQIKAHKKLLLGKSITHGKGSGGDPRIGYRAAEASASEIADIVKDYDLIFLTAGMGNGTGTGATPVIARIIKETARNNGLPQEPLVISVVTFPFKMEGKVRIEKAKAGIEMLLEYSDTVIIIQNDKLIELVPKLPIQVAFRFADEIIARMVKGIVETIKLPSMVNIDYADIYSVMKGGGPALIGIGESDSNNRAVDAVMEALNNKMLDIEFGSGDKALVHFTVGPDVSLEEITKAMEIVYERLGEKSEIKWGAMIEEDMGKTVRAMVIMTGVRSPQILGNINVNALTYSSSSLVVPRDSKIMSESKVDEIFSSIDPRASKLRKGNNSSRINKIFKDLGFYEL | soluble
MGSDKIHHHHHHMKLKNDELTVEFKPEGATISSIRDRDGVEYLWQGNPEYWGGQAPVLFPICGSLRNDGATFQVGEKTISGSMPRHGIVRKRTFDLVKHTENEIQFRILSDDEMLKQYPFPFELQLTYRLDGKRLETEYAIRYLGELDAMPFFIGGHPGFNCPLLEDEAFDDYYLEFELEEDCTIPESFPETGLLDFSKRQPMLSKTRILDLNYELFQHDALTFDNLKSRKVALKTKNHQKGLKVSFEDFPFLVVWTTTNKGPFIALEPWSGLSTSLTETDNFIDKTHVTYVEKGEVSRKAFTIEIC | not soluble
SSDLGSEELEEEGENDLGEYEGERNELGERHGHGKARLPNGDTYEGNYESGKRHGQGTYKFKNGARYVGDYVKNKKHGQGTFVYPDGSRYEGEWADDQRHGHGVYYYVNNDTYTGEWFNHQRHGQGTYFYAETGSKYVGTWVHGQQEGAAELIHLNHRYQGKFINKNPVGPGKYVFDVGCEQHGEYRLTDVERGEEEEEEETLVSIVPKWKALKITELALWTPTLSEEHPPAEGQGQEEVQGATGAGEPSDDIQAEGFEVDAEPRTGEEDIDFRQESQENSYDLDQGNPNFDEEQLDLQE | soluble
MGSDKIHHHHHHMSKIVEVSKSPYAKLKTIPVGSVRVNGFMGKYFETLVNVTLPTQYDLLENTGRLDNFRIAAGKMEGSYKTLFPFDDTDVYKWAETVSFALANRKLPELEKILDSVIEEVKAAQDEDGYLGTYLSGDRKKERWTNLAWNHELYNAGHLIQAAVAHRRVTGKNTLFEVAKRFADHIYNTFGPEKKEGAPGHPEVEMALVELYRETGDRKYLDLARYFIYARGKGLASVPRNPGPEYFIDHKPFVELEEITGHAVRALYLCSGATDLYLETGDEKIWQALNRLWENFVTKKMYITGGAGSRHDWESFGEEYELPNRRSYAESCASIANFMWNFRMLLATGDGKFADVMEQVLYNGLLSGISLDGKHYFYFNPLEDYGRTRRQKWFDCACCPPNLARFIVSFPGYMYTTSDDGVQVHLYEKSTARLDFKGSVVEIEQETDYPWSGEVAFTIKTDIEEPFSIYLRLPSWADDFVLRVDGKAVIAKPQNGYVKLSQSWKGKHTVELSLPMKAVFIEAHPFVRDDLGKAAVKRGPVVYCIEQADNPDFHVWTLVLNSESLKEEKGKILDREAVFLKGTGRALDISEWEGKLYRKLSEVREKTVEFTLIPYHMWANREPGAMAVWLKR | not soluble
MSEVDKAHLAAINKDVQANDTLFGKIIRKEIPAKIIFEDDEALAFHDVSPQAPIHFLVIPKRRIDMLENAVDSDAALIGKLMVTASKVAKQLGMANGYRVVVNNGKDGAQSVFHLHLHVLGGRQLQWPPG | not soluble
MRITQEQAEAIFCEDLKQFGKTVEQSVKVCLTDAQIAALVSFCYNVETQAFCKSTLLKKLNNGAYESVPAELQKWNKVGGKAIQGFVNRRAAEAGLWAKGSYVCFNTQRVETKNTIGLLKIETLAPMIGSCSGLGGLLVGNGPLPALWF | not soluble
